Experimental data: PMC9982067

Biological target: Lys38 (UniProt position 38, …)
Assay: kinetics
Settings: 19°C; 50 mM/50 mM TRIS/HEPES (pH 8.3-6.3), TRIS/MES (pH 6.6, 5.8), TRIS/citric acid (pH 5.3-2.8); Transporter in the native yeast plasma membrane, turning over with 1 mM L-lactate. The authors link the 7.43 inflection to Lys 38 in the substrate-unbound state.

B1: Monocarboxylate transporter 1 (MCT1) (Homo sapiens) (protein)
chain: MPPAVGGPVGYTPPDGGWGWAVVIGAFISIGFSYAFPKSITVFFKEIEGIFHATTSEVSWISSIMLAVMYGGGPISSILVNKYGSRIVMIVGGCLSGCGLIAASFCNTVQQLYVCIGVIGGLGLAFNLNPALTMIGKYFYKRRPLANGLAMAGSPVFLCTLAPLNQVFFGIFGWRGSFLILGGLLLNCCVAGALMRPIGPKPTKAGKDKSKASLEKAGKSGVKKDLHDANTDLIGRHPKQEKRSVFQTINQFLDLTLFTHRGFLLYLSGNVIMFFGLFAPLVFLSSYGKSQHYSSEKSAFLLSILAFVDMVARPSMGLVANTKPIRPRIQYFFAASVVANGVCHMLAPLSTTYVGFCVYAGFFGFAFGWLSSVLFETLMDLVGPQRFSSAVGLVTIVECCPVLLGPPLLGRLNDMYGDYKYTYWACGVVLIISGIYLFIGMGINYRLLAKEQKANEQKKESKEEETSIDVAGKPNEVTKAAESPDQKDTDGGPKEEESPV
- pKa: 7.43
